This data set can be described thus: self-splicing fitness, log relative to wild type (ln ratio); higher = more splicing; Tetrahymena group I intron in knt gene, E. coli kanamycin selection, DiMSum; sequences stand for … in CUCUCU…GGAGGGAAAAGUUAUCAGGCAUGCACCUGGUAGCUAGUCUUUAAACCAAUAGAUUGCAUCGGUUUAAAAGGCAAGACCGUCAAAUUGCGGGAAAGGGGUCAACAGCCGUUCAGUACCAAGUCUCAGGGGAAACUUUGAGAUGGCCUUGCAAAGGGUAUGGUAAUAAGCUGACGGACAUGGUCCUAACCACGCAGCCAAGUCCUAAGUCAACAGAUCUUCUGUUGAUAUGGAUGCAGUUCACAGACUAAAUGUCGGUCGGGGAAGAUGUAUUCUUCUCAUAAGAUAUAGUCGGACCUCUCCUUAAUGGGAGCUAGCGGAUGAAGUGAUGCAACACUGGAGCCGCUGGGAACUAAUUUGUAUGCGAAAGUAUAUUGAUUAGUUUUGGAGUACUCGUGGUCG
Summed up: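 A randomised library covering all eight P1ex-region intron nucleotides was built with the intron in the knt kanamycin-resistance gene on pET-22b(+) and held in E. coli BL21(DE3). Cells were grown overnight at 37°C or 30°C on LB agar, with or without 25 μg/mL kanamycin, plus 100 μg/mL carbenicillin, 50 μM IPTG and 0.2% rhamnose, and pooled colonies were amplicon-sequenced on an Illumina HiSeq 2500. DiMSum fitness is the error-weighted combination of wild-type-normalised replicate fold changes, kanamycin versus none.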

± gives the uncertainty stated by the source.

Turning to CUCCAGCAAUAUUACGGUUA, the “self-splicing fitness (ln)” value runs as follows: (30 °C) -3.03 ± 0.18; (37 °C) -2.45 ± 0.16. On to UGUAAGCAAUAUUACGAUUA, for which the “self-splicing fitness (ln)” value is -0.52 ± 0.076 (30 °C) and 0.447 ± 0.089 (37 °C). In the same order, the values of ACUCAGCAAUAUUACGCUGU are -3.46 ± 0.19 and -1.4 ± 0.17. The matching figures for GUGGAGCAAUAUUACGGCGU: -1.29 ± 0.26 and -0.557 ± 0.48. As to AUGCAGCAAUAUUACGCCAA, the “self-splicing fitness (ln)” value (30 °C) is -1.09 ± 0.12 and the “self-splicing fitness (ln)” value (37 °C) is -0.608 ± 0.14. The matching figures for CGUGAGCAAUAUUACGUCUA: -2.99 ± 0.37 and -1.59 ± 0.21. For the sequence CGCCAGCAAUAUUACGAUUA, the “self-splicing fitness (ln)” value reads like this: (30 °C) -2.37 ± 0.15; (37 °C) -2.68 ± 0.21. Take CCAAAGCAAUAUUACGAUGU: the “self-splicing fitness (ln)” value (30 °C) is -2.93 ± 0.1 and the “self-splicing fitness (ln)” value (37 °C) is -2.1 ± 0.11. Take ACAUAGCAAUAUUACGUGUG: the “self-splicing fitness (ln)” value was -2.41 ± 0.065 (30 °C) and -1.58 ± 0.069 (37 °C).

In the case of GUCGAGCAAUAUUACGCUGC, the “self-splicing fitness (ln)” value (37 °C) is -1.97 ± 0.48. AUAGAGCAAUAUUACGCGCG: the “self-splicing fitness (ln)” value is, setting by setting: (30 °C) -1.47 ± 0.2; (37 °C) -0.725 ± 0.23. UCAUAGCAAUAUUACGGCGU: the “self-splicing fitness (ln)” value was -3.73 ± 0.14 (30 °C) and -3.17 ± 0.19 (37 °C). With ACCGAGCAAUAUUACGUAAG, the “self-splicing fitness (ln)” value is, setting by setting: (30 °C) -2.67 ± 0.13; (37 °C) -2.13 ± 0.16. As to UGGUAGCAAUAUUACGAGGG, the “self-splicing fitness (ln)” value (37 °C) was -3.44 ± 0.33.

In the case of CACGAGCAAUAUUACGAUGA, the “self-splicing fitness (ln)” value was -3.21 ± 0.24 (30 °C) and -2.17 ± 0.23 (37 °C). For the sequence GUGGAGCAAUAUUACGAGUC, the “self-splicing fitness (ln)” value (37 °C) is -2.24 ± 0.31. As to GAAUAGCAAUAUUACGAAUC, the “self-splicing fitness (ln)” value (30 °C) was -2.32 ± 0.14 and the “self-splicing fitness (ln)” value (37 °C) is -0.98 ± 0.14. The matching figures for CUUGAGCAAUAUUACGACGA: -2.83 ± 0.42 and -2.51 ± 0.45. For the sequence AAUUAGCAAUAUUACGUCAG, the “self-splicing fitness (ln)” value (30 °C) is -1.16 ± 0.14 and the “self-splicing fitness (ln)” value (37 °C) was -1.47 ± 0.24.

For the sequence CUUAAGCAAUAUUACGGCAC, for the setting “30 °C”, the “self-splicing fitness (ln)” value was -3.43 ± 0.43. AGACAGCAAUAUUACGCCGG: the “self-splicing fitness (ln)” value was -2.95 ± 0.18 (30 °C) and -1.67 ± 0.16 (37 °C).

Regarding UAACAGCAAUAUUACGAAGC, the “self-splicing fitness (ln)” value was -3.19 ± 0.19 (30 °C) and -2.3 ± 0.27 (37 °C). For the sequence AAUGAGCAAUAUUACGAAAU, the “self-splicing fitness (ln)” value reads like this: (30 °C) -2.14 ± 0.28; (37 °C) -1.36 ± 0.34. In the case of UAUGAGCAAUAUUACGCUAG, under “30 °C”, the “self-splicing fitness (ln)” value was -3.34 ± 0.41. In the case of UCCCAGCAAUAUUACGCAUC, the “self-splicing fitness (ln)” value was -4.39 ± 0.42 (30 °C) and -1.85 ± 0.22 (37 °C).

On to UAGCAGCAAUAUUACGUAGC, for which the “self-splicing fitness (ln)” value (30 °C) was -3.58 ± 0.44 and the “self-splicing fitness (ln)” value (37 °C) was -2.78 ± 0.38. In the same order, the values of ACGGAGCAAUAUUACGACUA are -2.73 ± 0.35 and -2.09 ± 0.24. The matching figures for ACCUAGCAAUAUUACGUGCC: -1.63 ± 0.12 and -0.237 ± 0.14. Consider AUAAAGCAAUAUUACGCCGC, for which the “self-splicing fitness (ln)” value runs as follows: (30 °C) -2.8 ± 0.18; (37 °C) -2.05 ± 0.27.

Take AUAUAGCAAUAUUACGGUCU: the “self-splicing fitness (ln)” value runs as follows: (30 °C) -0.211 ± 0.076; (37 °C) 0.0619 ± 0.1. For the sequence UGCUAGCAAUAUUACGACGU, the “self-splicing fitness (ln)” value is, setting by setting: (30 °C) -1.71 ± 0.22; (37 °C) -2.36 ± 0.32. With CAGGAGCAAUAUUACGUGAC, where the note is “30 °C”, the “self-splicing fitness (ln)” value is -2.45 ± 0.19. As to UCCAAGCAAUAUUACGGUAU, the “self-splicing fitness (ln)” value (30 °C) was -2.72 ± 0.14 and the “self-splicing fitness (ln)” value (37 °C) is -2.02 ± 0.12. Take CCUCAGCAAUAUUACGGCCU: the “self-splicing fitness (ln)” value is, setting by setting: (30 °C) -4.16 ± 0.39; (37 °C) -1.59 ± 0.29. UGUUAGCAAUAUUACGACCG: the “self-splicing fitness (ln)” value (30 °C) was -0.238 ± 0.14 and the “self-splicing fitness (ln)” value (37 °C) was determined as 0.106 ± 0.14. In the same order, the values of UGCGAGCAAUAUUACGGGGA are -2.81 ± 0.39 and -1.9 ± 0.29. In the case of AUGUAGCAAUAUUACGAGGU, the “self-splicing fitness (ln)” value was -2.28 ± 0.19 (30 °C) and -1.84 ± 0.23 (37 °C). The matching figures for AGGUAGCAAUAUUACGAACA: -0.682 ± 0.019 and -0.342 ± 0.036. In the case of UCUAAGCAAUAUUACGUUCA, the “self-splicing fitness (ln)” value reads like this: (30 °C) -2.37 ± 0.17; (37 °C) -1.56 ± 0.15. The matching figures for UACUAGCAAUAUUACGGGAA: -1.95 ± 0.13 and -0.547 ± 0.1.

With AUAAAGCAAUAUUACGCGUG, the “self-splicing fitness (ln)” value (30 °C) was -1.11 ± 0.067 and the “self-splicing fitness (ln)” value (37 °C) is -0.15 ± 0.074. The matching figures for UUCAAGCAAUAUUACGUCAA: -0.772 ± 0.092 and -0.645 ± 0.1. On to GCAGAGCAAUAUUACGACUC, for which the “self-splicing fitness (ln)” value by setting is: (30 °C) -1.83 ± 0.15; (37 °C) -1.38 ± 0.17. For the sequence CAAGAGCAAUAUUACGGCUA, the “self-splicing fitness (ln)” value is -3.05 ± 0.31 (30 °C) and -1.97 ± 0.22 (37 °C). Consider GCCCAGCAAUAUUACGAAGA, for which the “self-splicing fitness (ln)” value by setting is: (30 °C) -1.46 ± 0.12; (37 °C) -0.344 ± 0.14. For the sequence AGACAGCAAUAUUACGGCGU, the “self-splicing fitness (ln)” value (30 °C) is -0.937 ± 0.057 and the “self-splicing fitness (ln)” value (37 °C) was -0.314 ± 0.065. In the case of GGACAGCAAUAUUACGCUAU, the “self-splicing fitness (ln)” value is -1.42 ± 0.098 (30 °C) and -0.49 ± 0.11 (37 °C). The matching figures for UUGAAGCAAUAUUACGCGUU: -3.35 ± 0.15 and -0.906 ± 0.12. Consider CGUCAGCAAUAUUACGGGUG, for which the “self-splicing fitness (ln)” value is, setting by setting: (30 °C) -1.9 ± 0.091; (37 °C) -0.977 ± 0.11. Regarding CAGAAGCAAUAUUACGGGAC, the “self-splicing fitness (ln)” value (37 °C) is -1.25 ± 0.35. In the case of GCCUAGCAAUAUUACGCCGU, the “self-splicing fitness (ln)” value is -1.01 ± 0.15 (30 °C) and -0.292 ± 0.13 (37 °C). Regarding CCUAAGCAAUAUUACGGUUU, the “self-splicing fitness (ln)” value by setting is: (30 °C) -4.49 ± 0.34; (37 °C) -3.07 ± 0.34. The matching figures for UAGCAGCAAUAUUACGCGGC: -3.84 ± 0.22 and -1.6 ± 0.21. The matching figures for CGCGAGCAAUAUUACGCGGG: -3.4 ± 0.17 and -3.6 ± 0.25.

In the case of ACAAAGCAAUAUUACGUAGG, the “self-splicing fitness (ln)” value runs as follows: (30 °C) -2.88 ± 0.1; (37 °C) -1.55 ± 0.12. As to CACGAGCAAUAUUACGUACC, the “self-splicing fitness (ln)” value (30 °C) was -2.54 ± 0.5. Turning to GAAGAGCAAUAUUACGCAGA, the “self-splicing fitness (ln)” value is, setting by setting: (30 °C) -2.65 ± 0.32; (37 °C) -2.73 ± 0.41. In the same order, the values of AUCCAGCAAUAUUACGUUGC are -3.87 ± 0.14 and -2.86 ± 0.15. The matching figures for UAUGAGCAAUAUUACGGCGA: -0.815 ± 0.17 and -0.45 ± 0.16. Take AAUCAGCAAUAUUACGGUCA: the “self-splicing fitness (ln)” value came to 0.236 ± 0.1 (30 °C) and 0.432 ± 0.12 (37 °C). In the same order, the values of AUGAAGCAAUAUUACGAGUG are -1.22 ± 0.056 and -0.514 ± 0.081. In the same order, the values of ACGUAGCAAUAUUACGAUCA are -0.757 ± 0.1 and -0.359 ± 0.086. For the sequence ACAGAGCAAUAUUACGGUUU, the “self-splicing fitness (ln)” value by setting is: (30 °C) -3.11 ± 0.2; (37 °C) -1.81 ± 0.16. The matching figures for UAAAAGCAAUAUUACGAAUC: -4.16 ± 0.42 and -2.13 ± 0.21. In the same order, the values of ACUGAGCAAUAUUACGGUAG are -3.12 ± 0.18 and -1.03 ± 0.21. The matching figures for GGUUAGCAAUAUUACGGGCC: -2.52 ± 0.27 and -1.47 ± 0.29. Turning to CAAGAGCAAUAUUACGCGAA, the “self-splicing fitness (ln)” value runs as follows: (30 °C) -3.05 ± 0.26; (37 °C) -2.98 ± 0.4. In the same order, the values of CUUGAGCAAUAUUACGAACG are -0.921 ± 0.13 and 0.12 ± 0.18. The matching figures for UCCCAGCAAUAUUACGUAAU: -2.01 ± 0.068 and -0.749 ± 0.085. As to GCUUAGCAAUAUUACGCGGG, the “self-splicing fitness (ln)” value is -3.43 ± 0.22 (30 °C) and -2.82 ± 0.32 (37 °C).

Consider ACUUAGCAAUAUUACGUACC, for which the “self-splicing fitness (ln)” value was -2.17 ± 0.23 (30 °C) and -1.06 ± 0.23 (37 °C).

For CCACAGCAAUAUUACGACAA, the “self-splicing fitness (ln)” value (30 °C) is -3.09 ± 0.22 and the “self-splicing fitness (ln)” value (37 °C) is -1.91 ± 0.17.

Regarding ACGUAGCAAUAUUACGAGGU, the “self-splicing fitness (ln)” value was -3.36 ± 0.21 (30 °C) and -2.02 ± 0.2 (37 °C). In the case of GAUUAGCAAUAUUACGUGCC, the “self-splicing fitness (ln)” value reads like this: (30 °C) 0.747 ± 0.28; (37 °C) -0.667 ± 0.46. The matching figures for GGCAAGCAAUAUUACGUGGA: -1.28 ± 0.077 and -0.277 ± 0.073. As to UCCCAGCAAUAUUACGGAGC, the “self-splicing fitness (ln)” value (30 °C) is -1.44 ± 0.098 and the “self-splicing fitness (ln)” value (37 °C) was -1.44 ± 0.18. As for UGGUAGCAAUAUUACGUGUU, the “self-splicing fitness (ln)” value by setting is: (30 °C) -3.24 ± 0.28; (37 °C) -1.82 ± 0.29.

The values are drawn from the supplement of paper PMC7877785.
